For experiment [1], the target named is Tat AcK50 peptide SYGR-AcK-[…] (SEQ ID NO:50) (Human Immunodeficiency Virus type 1). The experiment can be described thus: NMR 2D 1H-15N HSQC titration; 'interacts strongly'.
Experiment [2] addresses T1, Tat AcK28 peptide TNCYCK-AcK-CCFH (SEQ ID NO:58) (Human Immunodeficiency Virus type 1).
T1 construct: Synthetic peptide
The experiment can be described thus: NMR 2D 1H-15N HSQC titration; 'binds weakly'.

Experiment [3] addresses T2, P/CAF (p300/CBP-associated factor), HA-tagged, expressed in cells (human, UniProt Q92831 1-832).
T2 construct: also called HA-P/CAF
The experiment in a line: interaction in cells, western blot (FLAG-Tat, HA-P/CAF). Background: In western blotting, separated proteins are transferred to a membrane and probed.

Where only a bound is given, the exact number is not on record here.

B1: bromodomain of P/CAF (residues 719-832 of SEQ ID NO:2) (other)
chain: SKEPRDPDQLYSTLKSILQQVKSHQSAWPFMEPVKRTEAPGYYEVIRFPMDLKTMSERLKNRYYVSKKLFMADLQRVFTNCKEYNAAESEYYKCANILEKFFFSKIKEAGLIDK
notes: also called P/CAF bromodomain; the bromodomain
Consider B1, for which the Kd in experiment [1] was approximately 20 µM; in experiment [2], less than 300 µM.

B2: Tat K50R/K51R mutant protein, FLAG-tagged, expressed in cells (other)
chain: MEPVDPRLEPWKHPGSQPKTASNNCYCKRCCLHCQVCFTKKGLGISYGRRRRRQRRRAPQDSKTHQVSLSKQPASQPRGDPTGPKESKKKVERETETDPED
notes: also called Tat-RR; Tat double mutant containing K50R/K51R
In the case of B2, the binding result in experiment [3] is given as “no binding”.

Usually Kd stands for the free concentration of one partner at which half of the binding sites on the other are occupied at equilibrium, for simple one-to-one binding. High values mean weaker binding, low ones tighter binding.

Values taken from US20040043378A1 (published 2004).
